T1: human IL-23R (human, UniProt Q5VWK5 24-353, limits assumed)
T1 construct: also called huIL-23R; human interleukin-23R
T1 sequence: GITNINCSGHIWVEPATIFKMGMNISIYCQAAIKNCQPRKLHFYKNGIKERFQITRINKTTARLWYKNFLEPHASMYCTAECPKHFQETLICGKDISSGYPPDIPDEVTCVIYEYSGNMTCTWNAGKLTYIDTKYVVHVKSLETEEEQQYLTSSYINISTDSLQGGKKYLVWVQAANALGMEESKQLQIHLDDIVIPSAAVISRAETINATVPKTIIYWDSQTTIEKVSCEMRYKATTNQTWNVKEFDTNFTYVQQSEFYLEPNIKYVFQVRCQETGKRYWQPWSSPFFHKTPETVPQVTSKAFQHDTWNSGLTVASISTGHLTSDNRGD

T2: biotinylated huIL-23R-IgG (human, UniProt Q5VWK5 24-353, biotinylated)
T2 construct: not shown: human IgG1 Fc
T2 sequence: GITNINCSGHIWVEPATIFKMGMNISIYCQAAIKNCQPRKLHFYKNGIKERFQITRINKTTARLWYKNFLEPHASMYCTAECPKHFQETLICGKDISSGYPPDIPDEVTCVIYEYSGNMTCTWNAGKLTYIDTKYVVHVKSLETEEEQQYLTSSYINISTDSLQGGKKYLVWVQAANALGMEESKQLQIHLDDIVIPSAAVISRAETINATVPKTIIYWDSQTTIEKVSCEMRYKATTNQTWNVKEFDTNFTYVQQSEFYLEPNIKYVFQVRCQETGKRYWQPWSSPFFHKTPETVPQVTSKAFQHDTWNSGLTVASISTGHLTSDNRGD

B1: antibody with hu8B10 VH and hu8B10 VL N31T (antibody, V domains shown)
VH: QVQLVESGGGVVQPGRSLRLSCAASGFDFNSYGMSWVRQAPGKGLEWVADINSKSYNYATYYADSVKDRFTISRDNSKNTLYLQMNSLRAEDTAVYYCARHHSDYFEYWGQGTLVTVSS
VL: DIQMTQSPSSLSASVGDRVTITCLASEDIYTNLAWYQQKPGKAPKLLIYHASSLQDGVPSRFSGSGSGTDFTLTISSLQPEDFATYYCLQDSEYPPTFGQGTKVEIKR
notes: also called VH: hu8B10 / VL: hu8B10 N31T
B2: hu8B10-b variant, VL N32S (antibody, V domains shown)
VH: QVQLVESGGGVVQPGRSLRLSCAASGFDFNSYGMSWVRQAPGKGLDLVADINSKSYNYATYYADSVKDRFTISRDNSKNTLYLQMNSLRAEDTAVYYCAVHHSDYFEYWGQGTLVTVSS
VL: DIQMTQSPSSLSASVGDRVTITCRASQDIYTSLAWYQQKPGKAPKLLIYHASSLQDGVPSRFSGSGSGTDYTLTISSLQPEDFATYYCLQDSEYPPTFGQGTKVEIKR
notes: also called VH: 8B10-b / VL: 8B10-b N32S
B3: hu8B10-b variant, VL D56S (antibody, V domains shown)
VH: QVQLVESGGGVVQPGRSLRLSCAASGFDFNSYGMSWVRQAPGKGLDLVADINSKSYNYATYYADSVKDRFTISRDNSKNTLYLQMNSLRAEDTAVYYCAVHHSDYFEYWGQGTLVTVSS
VL: DIQMTQSPSSLSASVGDRVTITCRASQDIYTNLAWYQQKPGKAPKLLIYHASSLQSGVPSRFSGSGSGTDYTLTISSLQPEDFATYYCLQDSEYPPTFGQGTKVEIKR
notes: also called VH: 8B10-b / VL: 8B10-b D56S
B4: antibody with hu8B10-b VH and hu8B10 VL N31T (antibody, V domains shown)
VH: QVQLVESGGGVVQPGRSLRLSCAASGFDFNSYGMSWVRQAPGKGLDLVADINSKSYNYATYYADSVKDRFTISRDNSKNTLYLQMNSLRAEDTAVYYCAVHHSDYFEYWGQGTLVTVSS
VL: DIQMTQSPSSLSASVGDRVTITCLASEDIYTNLAWYQQKPGKAPKLLIYHASSLQDGVPSRFSGSGSGTDFTLTISSLQPEDFATYYCLQDSEYPPTFGQGTKVEIKR
notes: also called VH: hu8B10-b / VL: hu8B10 N31T
B5: hu8B10-b variant, VH N30D (antibody, V domains shown)
VH: QVQLVESGGGVVQPGRSLRLSCAASGFDFDSYGMSWVRQAPGKGLDLVADINSKSYNYATYYADSVKDRFTISRDNSKNTLYLQMNSLRAEDTAVYYCAVHHSDYFEYWGQGTLVTVSS
VL: DIQMTQSPSSLSASVGDRVTITCRASQDIYTNLAWYQQKPGKAPKLLIYHASSLQDGVPSRFSGSGSGTDYTLTISSLQPEDFATYYCLQDSEYPPTFGQGTKVEIKR
notes: also called VH: 8B10-b N30D / VL: 8B10-b
B6: humanized anti-human IL-23R antibody hu8B10-c (antibody, V domains shown)
VH: QVQLVESGGGVVQPGRSLRLSCAASGFDFSSYGMSWVRQAPGKGLDLVADINSKSYNYATYYADSVKDRFTISRDNSKNTLYLQMNSLRAEDTAVYYCAVHHSDYFEYWGQGTLVTVSS
VL: DIQMTQSPSSLSASVGDRVTITCRASQDIYTNLAWYQQKPGKAPKLLIYHASSLQSGVPSRFSGSGSGTDYTLTISSLQPEDFATYYCLQDSEYPPTFGQGTKVEIKR
notes: 8B10-b with VL D56S and VH N30S
B7: hu8B10-b variant, VL D56E (antibody, V domains shown)
VH: QVQLVESGGGVVQPGRSLRLSCAASGFDFNSYGMSWVRQAPGKGLDLVADINSKSYNYATYYADSVKDRFTISRDNSKNTLYLQMNSLRAEDTAVYYCAVHHSDYFEYWGQGTLVTVSS
VL: DIQMTQSPSSLSASVGDRVTITCRASQDIYTNLAWYQQKPGKAPKLLIYHASSLQEGVPSRFSGSGSGTDYTLTISSLQPEDFATYYCLQDSEYPPTFGQGTKVEIKR
notes: also called VH: 8B10-b / VL: 8B10-b D56E
B8: hu8B10-b variant, VH N52S (antibody, V domains shown)
VH: QVQLVESGGGVVQPGRSLRLSCAASGFDFNSYGMSWVRQAPGKGLDLVADISSKSYNYATYYADSVKDRFTISRDNSKNTLYLQMNSLRAEDTAVYYCAVHHSDYFEYWGQGTLVTVSS
VL: DIQMTQSPSSLSASVGDRVTITCRASQDIYTNLAWYQQKPGKAPKLLIYHASSLQDGVPSRFSGSGSGTDYTLTISSLQPEDFATYYCLQDSEYPPTFGQGTKVEIKR
notes: also called VH: 8B10-b N52S / VL: 8B10-b
B9: hu8B10-b variant, VH N52D (antibody, V domains shown)
VH: QVQLVESGGGVVQPGRSLRLSCAASGFDFNSYGMSWVRQAPGKGLDLVADIDSKSYNYATYYADSVKDRFTISRDNSKNTLYLQMNSLRAEDTAVYYCAVHHSDYFEYWGQGTLVTVSS
VL: DIQMTQSPSSLSASVGDRVTITCRASQDIYTNLAWYQQKPGKAPKLLIYHASSLQDGVPSRFSGSGSGTDYTLTISSLQPEDFATYYCLQDSEYPPTFGQGTKVEIKR
notes: also called VH: 8B10-b N52D / VL: 8B10-b
B10: hu8B10-b variant, VH N57D (antibody, V domains shown)
VH: QVQLVESGGGVVQPGRSLRLSCAASGFDFNSYGMSWVRQAPGKGLDLVADINSKSYDYATYYADSVKDRFTISRDNSKNTLYLQMNSLRAEDTAVYYCAVHHSDYFEYWGQGTLVTVSS
VL: DIQMTQSPSSLSASVGDRVTITCRASQDIYTNLAWYQQKPGKAPKLLIYHASSLQDGVPSRFSGSGSGTDYTLTISSLQPEDFATYYCLQDSEYPPTFGQGTKVEIKR
notes: also called VH: 8B10-b N57D / VL: 8B10-b
B11: hu8B10-b variant, VH N57S (antibody, V domains shown)
VH: QVQLVESGGGVVQPGRSLRLSCAASGFDFNSYGMSWVRQAPGKGLDLVADINSKSYSYATYYADSVKDRFTISRDNSKNTLYLQMNSLRAEDTAVYYCAVHHSDYFEYWGQGTLVTVSS
VL: DIQMTQSPSSLSASVGDRVTITCRASQDIYTNLAWYQQKPGKAPKLLIYHASSLQDGVPSRFSGSGSGTDYTLTISSLQPEDFATYYCLQDSEYPPTFGQGTKVEIKR
notes: also called VH: 8B10-b N57S / VL: 8B10-b
B12: hu8B10-b variant, VH N30S (antibody, V domains shown)
VH: QVQLVESGGGVVQPGRSLRLSCAASGFDFSSYGMSWVRQAPGKGLDLVADINSKSYNYATYYADSVKDRFTISRDNSKNTLYLQMNSLRAEDTAVYYCAVHHSDYFEYWGQGTLVTVSS
VL: DIQMTQSPSSLSASVGDRVTITCRASQDIYTNLAWYQQKPGKAPKLLIYHASSLQDGVPSRFSGSGSGTDYTLTISSLQPEDFATYYCLQDSEYPPTFGQGTKVEIKR
notes: also called VH: 8B10-b N30S / VL: 8B10-b
B13: chimeric 8B10 Fab, VL Y94A (Fab, V domains shown)
VH: EVKLVESGGGLEQPKGSLKLSCTVSGFDFNSYGMSWVRQAPGKGLDLVADINSKSYNYATYYADSVKDRFTISRDDSQSMVYLEMDNLKTEDTALYYCTVHHSDYFEYWGQGVMVTVSS
VL: DIQMTQSPASLSASLGETVSIECLASEDIYNNLAWYQQKPGKSPQLLIYHASSLQDGVPSRFSGSGSGTQYSLKINSLESEDAATYFCLQDSEAPPTFGGGTKLELKR
notes: Rat V domains with human CH1 and CL; E. coli periplasmic extract
B14: chimeric 8B10 Fab, VL N31del (Fab, V domains shown)
VH: EVKLVESGGGLEQPKGSLKLSCTVSGFDFNSYGMSWVRQAPGKGLDLVADINSKSYNYATYYADSVKDRFTISRDDSQSMVYLEMDNLKTEDTALYYCTVHHSDYFEYWGQGVMVTVSS
VL: DIQMTQSPASLSASLGETVSIECLASEDIYNLAWYQQKPGKSPQLLIYHASSLQDGVPSRFSGSGSGTQYSLKINSLESEDAATYFCLQDSEYPPTFGGGTKLELK
notes: as for B13

In one experiment the target is T1, human IL-23R. Put plainly: BIAcore SPR, antibody immobilised. How it is done: BIAcore® label-free interaction analysis system determinations are performed essentially as described at Example 4 of U.S. Patent Application Publication No. 2007/0048315, which is hereby incorporated by reference. Briefly, ligands (anti-IL-23R mAbs) are immobilized on a BIAcore® label-free interaction analysis system CM5 sensor chip using standard amine-coupling procedure. Kinetic constants for the various interactions are determined using BIAevaluation software 3.1. The Kd is determined using the calculated dissociation and association rate constants.
Several sequence variants intended to increase the chemical stability of hu8B10-b were produced to evaluate their effects on binding affinity. Kd values are provided at Table 3. Binding to human IL-23R was determined using the BIAcore® label-free interaction analysis system (surface plasmon resonance), essentially as described in Example 4 (supra). Chimeric forms, designated as “chim,” refers to rat variable domains linked to human IgG1 heavy chain and human kappa light chain constant domains, e.g., as presented at SEQ ID NOs: 16 and 17, respectively, or as at SEQ ID NOs: 22 and 23, respectively. Sequences for heavy and light chain variable domains are provided at FIGS. 1 and 2, and in the Sequence Listing (as described at Table 4). Antibodies incorporate the sequence changes recited in the table (“Variant(s)”) for the respective heavy and light chains. Data arc presented as mean±standard deviation for multiple determinations, and without error estimates for single determinations.
With B1, the binding result is “no binding”.
B2: the Kd worked out at 19.2 nM.
B3 came in with a Kd of 0.187 nM.
Same read-out and setting: for B4 the value was 5.38 nM; for B5, 0.114 nM; for B6, 0.18 nM.
Same read-out and setting: for B7 the value was 0.179 nM; for B8, 0.444 nM.
With B9, the binding result is “no binding”.
B10 displayed a Kd of 0.22 nM.
Molecule B11 returned a Kd of 0.382 nM.
The same measure, in the same setting: next, B12: 0.168 nM.

A further experiment addresses T2, biotinylated huIL-23R-IgG. As to the kind of experiment: ECL binding assay, Binding (% of w.t.). From the text: The N31T change was introduced as a result of affinity maturation experiments, as follows. An E. coli expression vector for expression into the periplasmic space was constructed encoding a chimeric Fab fragment of rat antibody 8B10 comprising rat variable domains, a human constant light chain domain (CL) and a human constant heavy chain domain CH1. Mutations were introduced using a QuikChange® site directed mutagenesis kit (Stratagene Inc., LaJolla, Calif., USA). Primers were designed to replace selected positions with either alanine, or by all 20 amino acids, using the NNK codon approach (N includes an equimolar mix of A/G/C/T and K includes only G/T). To reduce background, alanine mutants at each position were used as the template for the randomization step. Unpurified periplasmic extracts were then tested for human IL-23R binding activity using an electrochemiluminescence assay with biotinylated huIL-23R-IgG and goat anti-huFab-Ori-Tag for detection. The area under the curve was used to compare the binding activity of sequence variants to the original parental 8B10 Fab. Data were fitted using GraphPad Prism® 3.0 software (Graphpad Software inc., San Diego, Calif. USA).
For the molecule B13, the binding result is recorded as “no binding”.
The same measure, in the same setting: for B14 the value was “no binding”.

The record behind these values is patent US20110158992A1 (SCHERING, published 2011).
